According to patent publication US20250145690A1 (US Dept. of Health and Human Services, published 2025):

T1: HCoV-OC43 spike protein (HCoV-OC43, UniProt P36334 14-1297)
T1 sequence: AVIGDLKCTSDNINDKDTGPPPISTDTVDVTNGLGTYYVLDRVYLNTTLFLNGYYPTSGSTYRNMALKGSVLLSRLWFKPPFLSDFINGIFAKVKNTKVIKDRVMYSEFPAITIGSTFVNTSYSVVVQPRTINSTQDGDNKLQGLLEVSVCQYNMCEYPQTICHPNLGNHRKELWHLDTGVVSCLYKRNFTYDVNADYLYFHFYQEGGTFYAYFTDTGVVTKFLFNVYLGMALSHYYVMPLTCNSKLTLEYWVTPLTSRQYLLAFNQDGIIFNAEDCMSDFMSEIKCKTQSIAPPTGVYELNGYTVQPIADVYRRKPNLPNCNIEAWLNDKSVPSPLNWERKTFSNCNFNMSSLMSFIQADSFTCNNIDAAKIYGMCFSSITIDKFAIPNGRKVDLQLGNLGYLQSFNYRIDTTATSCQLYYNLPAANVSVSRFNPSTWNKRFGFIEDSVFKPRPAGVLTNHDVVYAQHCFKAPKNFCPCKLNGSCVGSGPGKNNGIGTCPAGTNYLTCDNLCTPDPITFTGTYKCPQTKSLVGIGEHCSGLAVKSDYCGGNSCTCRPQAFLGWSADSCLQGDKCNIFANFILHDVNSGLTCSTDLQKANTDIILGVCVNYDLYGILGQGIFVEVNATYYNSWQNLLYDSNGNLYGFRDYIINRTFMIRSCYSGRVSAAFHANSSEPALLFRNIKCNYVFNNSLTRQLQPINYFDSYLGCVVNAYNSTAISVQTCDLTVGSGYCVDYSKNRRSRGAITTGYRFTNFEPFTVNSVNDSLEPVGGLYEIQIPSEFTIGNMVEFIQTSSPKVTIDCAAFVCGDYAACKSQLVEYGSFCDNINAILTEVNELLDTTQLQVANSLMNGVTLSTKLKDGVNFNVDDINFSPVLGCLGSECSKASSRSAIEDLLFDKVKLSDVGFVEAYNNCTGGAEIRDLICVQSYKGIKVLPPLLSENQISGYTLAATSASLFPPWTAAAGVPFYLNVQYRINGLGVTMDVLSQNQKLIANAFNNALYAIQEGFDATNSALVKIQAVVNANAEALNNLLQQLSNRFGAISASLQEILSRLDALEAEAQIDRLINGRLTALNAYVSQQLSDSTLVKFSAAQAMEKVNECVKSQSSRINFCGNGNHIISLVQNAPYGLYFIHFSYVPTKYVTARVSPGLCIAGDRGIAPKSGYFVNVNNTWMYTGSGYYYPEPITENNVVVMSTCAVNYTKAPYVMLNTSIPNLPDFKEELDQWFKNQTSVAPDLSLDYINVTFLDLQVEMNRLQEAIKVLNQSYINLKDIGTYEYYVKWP

B1: COV49-54 (antibody, V domains shown)
VH: EVQLVESGGGLVQPGGSLRLSCAASGFIVSSNYMSWVRQAPGKGLEWVSMIYSGGSTVYADSVKGRFTISRDISKNTLYLQMNSLRAEDTAVYYCALETFDYWGQGTLVTVSS
VL: DIQMTQSPSSLSASVGDRVTITCRASQGITNHLAWYQQKPGKVPKLLIYAASTLQSGVPSRFSGSGYGTDFTLTISSLQPEDVASYYCQKYDSAPRTFGQGTKVEIK
B2: COV23-01 (antibody, V domains shown)
VH: QVTLKESGPVLVKPTETLTLTCTVSGFSLSNTKMGVSWIRQPPGKALEWLAHIFSNDRKSYTTSLKSRLTISEDTSKSQIVLTMTNMDPVDTATYYCARIGAGGTYNFYYYMDVWGKGTTVTVSS
VL: EIVLTQSPATLSLSPGERATLSCRASQSVSSYLAWYQQKPGQAPRLLIYDASNRATGIPARFSGSGSGTDFTLTISSLEPEDFAVYYCQQRSLYYTFGQGTKLEIK

Tests used:
[1] = biological target: T2, SARS-CoV-2 spike S2 subunit, recombinant (SARS-CoV-2, UniProt P0DTC2 686-1213); assay: bead flow cytometry, AUC minus CD4
T2 construct: domain: S2 subunit

[2] = biological target: T1, HCoV-OC43 spike protein; assay: bead flow cytometry, AUC minus CD4

Binder	binding result [1]	binding result [2]
B1	no binding (tested: 200 µg/mL)	–
B2	–	no binding (tested: 200 µg/mL)
